Reference: the supplement of paper PMC5998384

Assays:
[1] = test system: HeLa Kyoto; test: solubility in G1/S (NP-40 vs SDS abundance) (log2 ratio); higher = more soluble; conditions: cell cycle stage: G1/S
[2] = test system: HeLa Kyoto; test: melting temperature (median over replicates), in situ; higher = more thermally stable
[3] = test system: HeLa Kyoto; test: solubility change mitosis vs G1/S (difference of NP-40 vs SDS log2 ratios) (log2 ratio difference); higher = more soluble in mitosis
[4] = test system: HeLa Kyoto; test: thermal stability score vs G1/S (z-score of summed log2 fold changes over temperatures); higher = more thermally stable than in G1/S
[5] = cell cycle stage: early G1 (4.5 h after nocodazole release)
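For melting temperature (median over replicates), in situ in this document: HeLa Kyoto cells synchronized by double thymidine or nocodazole block, proteins quantified by TMT10plex mass spectrometry, three independent biological replicates.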
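For solubility change mitosis vs G1/S (difference of NP-40 vs SDS log2 ratios) in this document: synchronized HeLa Kyoto cells (double thymidine block for G1/S, nocodazole release for mitosis), protein amounts in NP-40 versus SDS lysates quantified by mass spectrometry, three biological replicates.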
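For solubility in G1/S (NP-40 vs SDS abundance) in this document: HeLa Kyoto cells arrested at G1/S by double thymidine block, proteins quantified by TMT10plex mass spectrometry in mild NP-40 versus SDS extracts, three biological replicates.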
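For thermal stability score vs G1/S (z-score of summed log2 fold changes over temperatures) in this document: synchronized HeLa Kyoto cells, proteins quantified by TMT10plex mass spectrometry, three biological replicates, mitosis taken 0.5 h after nocodazole release, G1/S directly after double thymidine block.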

“MKLPARVFFTLGSRLPCGLAPRRFFSYGTKILYQNTEALQSKFFSPLQKAMLPPNSFQGKVAFITGGGTGLGKGMTTLLSSLGAQCVIASRKMDVLKATAEQISSQTGNKVHAIQCDVRDPDMVQNTVSELIKVAGHPNIVINNAAGNFISPTERLSPNAWKTITDIVLNGTAFVTLEIGKQLIKAQKGAAFLSITTIYAETGSGFVVPSASAKAGVEAMSKSLAAEWGKYGMRFNVIQPGPIKTKGAFSRLDPTGTFEKEMIGRIPCGRLGTVEELANLAAFLCSDYASWINGAVIKFDGGEEVLISGEFNDLRKVTKEQWDTIEELIRKTKGS [DECR1]” was tested. Which “solubility in G1/S (log2)” value [1] did it give?
The value was 0.0868.

And the melting temperature ([2]; cell cycle stage: G1/S)?
Its melting temperature is 55.7 °C.

What about the melting temperature ([2]; cell cycle stage: mitosis) of the same sequence?
The melting temperature was 55.5 °C.

What about the “solubility change mitosis (log2)” value [3] of the same sequence?
The value was 0.263.

What about the thermal stability score [4, 5] of the same sequence?
The thermal stability score was 0.81.

And the thermal stability score ([4]; cell cycle stage: mitosis)?
Its thermal stability score is -1.85.

What does the source list for “MKPKLMYQELKVPAEEPANELPMNEIEAWKAAEKKARWVLLVLILAVVGFGALMTQLFLWEYGDLHLFGPNQRPAPCYDPCEAVLVESIPEGLDFPNASTGNPSTSQAWLGLLAGAHSSLDIASFYWTLTNNDTHTQEPSAQQGEEVLRQLQTLAPKGVNVRIAVSKPSGPQPQADLQALLQSGAQVRMVDMQKLTHGVLHTKFWVVDQTHFYLGSANMDWRSLTQVKELGVVMYNCSCLARDLTKIFEAYWFLGQAGSSIPSTWPRFYDTRYNQETPMEICLNGTPALAYLASAPPPLCPSGRTPDLKALLNVVDNARSFIYVAVMNYLPTLEFSHPHRFWPAIDDGLRRATYERGVKVRLLISCWGHSEPSMRAFLLSLAALRDNHTHSDIQVKLFVVPADEAQARIPYARVNHNKYMVTERATYIGTSNWSGNYFTETAGTSLLVTQNGRGGLRSQLEAIFLRDWDSPYSHDLDTSADSVGNACRLL [PLD3]”?
solubility in G1/S (log2) [1]: 0.309; melting temperature ([2]; cell cycle stage: G1/S): 55.7 °C; melting temperature ([2]; cell cycle stage: mitosis): 55.3 °C; solubility change mitosis (log2) [3]: -0.0637; thermal stability score [4, 5]: -2.87; thermal stability score ([4]; cell cycle stage: mitosis): -4.26

Which results are given for “MKPLVVFVLGGPGAGKGTQCARIVEKYGYTHLSAGELLRDERKNPDSQYGELIEKYIKEGKIVPVEITISLLKREMDQTMAANAQKNKFLIDGFPRNQDNLQGWNKTMDGKADVSFVLFFDCNNEICIERCLERGKSSGRSDDNRESLEKRIQTYLQSTKPIIDLYEEMGKVKKIDASKSVDEVFDEVVQIFDKEG [CMPK1]”?
solubility in G1/S (log2) [1]: 0.272; melting temperature ([2]; cell cycle stage: G1/S): 51.1 °C; melting temperature ([2]; cell cycle stage: mitosis): 52.2 °C; solubility change mitosis (log2) [3]: 0.065; thermal stability score [4, 5]: 1.52; thermal stability score ([4]; cell cycle stage: mitosis): 0.905

Which “solubility in G1/S (log2)” value [1] does the source give for “MKRPKLKKASKRMTCHKRYKIQKKVREHHRKLRKEAKKRGHKKPRKDPGVPNSAPFKEALLREAELRKQRLEELKQQQKLDRQKELEKKRKLETNPDIKPSNVEPMEKEFGLCKTENKAKSGKQNSKKLYCQELKKVIEASDVVLEVLDARDPLGCRCPQVEEAIVQSGQKKLVLILNKSDLVPKENLESWLNYLKKELPTVVFRASTKPKDKGKITKRVKAKKNAAPFRSEVCFGKEGLWKLLGGFQETCSKAIRVGVIGFPNVGKSSIINSLKQEQMCNVGVSMGLTRSMQVVPLDKQITIIDSPSFIVSPLNSSSALALRSPASIEVVKPMEAASAILSQADARQVVLKYTVPGYRNSLEFFTVLAQRRGMHQKGGIPNVEGAAKLLWSEWTGASLAYYCHPPTSWTPPPYFNESIVVDMKSGFNLEELEKNNAQSIRAIKGPHLANSILFQSSGLTNGIIEEKDIHEELPKRKERKQEEREDDKDSDQETVDEEVDENSSGMFAAEETGEALSEETTAGEQSTRSFILDKIIEEDDAYDFSTDYV [GNL3]” here?
The value was -1.72.

And the melting temperature ([2]; cell cycle stage: G1/S)?
The melting temperature was 45.3 °C.

What about the melting temperature ([2]; cell cycle stage: mitosis) of the same sequence?
Its melting temperature is 50.2 °C.

What about the “solubility change mitosis (log2)” value [3] of the same sequence?
The value was 0.867.

What about the thermal stability score [4, 5] of the same sequence?
Its thermal stability score is 5.07.

And the thermal stability score ([4]; cell cycle stage: mitosis)?
Its thermal stability score is 8.85.

Which “solubility in G1/S (log2)” value [1] does the source give for “MKSLKAKFRKSDTNEWNKNDDRLLQAVENGDAEKVASLLGKKGASATKHDSEGKTAFHLAAAKGHVECLRVMITHGVDVTAQDTTGHSALHLAAKNSHHECIRKLLQSKCPAESVDSSGKTALHYAAAQGCLQAVQILCEHKSPINLKDLDGNIPLLLAVQNGHSEICHFLLDHGADVNSRNKSGRTALMLACEIGSSNAVEALIKKGADLNLVDSLGYNALHYSKLSENAGIQSLLLSKISQDADLKTPTKPKQHDQVSKISSERSGTPKKRKAPPPPISPTQLSDVSSPRSITSTPLSGKESVFFAEPPFKAEISSIRENKDRLSDSTTGADSLLDISSEADQQDLLSLLQAKVASLTLHNKELQDKLQAKSPKEAEADLSFDSYHSTQTDLGPSLGKPGETSPPDSKSSPSVLIHSLGKSTTDNDVRIQQLQEILQDLQKRLESSEAERKQLQVELQSRRAELVCLNNTEISENSSDLSQKLKETQSKYEEAMKEVLSVQKQMKLGLVSPESMDNYSHFHELRVTEEEINVLKQDLQNALEESERNKEKVRELEEKLVEREKGTVIKPPVEEYEEMKSSYCSVIENMNKEKAFLFEKYQEAQEEIMKLKDTLKSQMTQEASDEAEDMKEAMNRMIDELNKQVSELSQLYKEAQAELEDYRKRKSLEDVTAEYIHKAEHEKLMQLTNVSRAKAEDALSEMKSQYSKVLNELTQLKQLVDAQKENSVSITEHLQVITTLRTAAKEMEEKISNLKEHLASKEVEVAKLEKQLLEEKAAMTDAMVPRSSYEKLQSSLESEVSVLASKLKESVKEKEKVHSEVVQIRSEVSQVKREKENIQTLLKSKEQEVNELLQKFQQAQEELAEMKRYAESSSKLEEDKDKKINEMSKEVTKLKEALNSLSQLSYSTSSSKRQSQQLEALQQQVKQLQNQLAECKKQHQEVISVYRMHLLYAVQGQMDEDVQKVLKQILTMCKNQSQKK [RAI14]” here?
The value was -0.263.

And the melting temperature ([2]; cell cycle stage: G1/S)?
Its melting temperature is 49.7 °C.

What about the melting temperature ([2]; cell cycle stage: mitosis) of the same sequence?
Its melting temperature is 50 °C.

And the “solubility change mitosis (log2)” value [3]?
The value was 0.267.

What about the thermal stability score [4, 5] of the same sequence?
The thermal stability score was 0.622.

And the thermal stability score ([4]; cell cycle stage: mitosis)?
Its thermal stability score is 0.688.
